Measurements published in patent US10561709B2, “Methods and compositions of neuregulins for preventing, treating or delaying preserved ejection fraction cardiac failure” (Zensun (Shanghai) Science & Technology, Co., Ltd., priority 2014, dated 2020).

B1: NRG: Recombinant human neuregulin, Neucardin™, 61 amino acids, produced by Shanghai Zensun Sci & Tech Co., Ltd. (protein)
chain: SHLVKCAEKEKTFCVNGGECFMVKDLSNPSRYLCKCPNEFTGDRCQNYVMASFYKAEELYQ
modifications: homo sapiens

Key:
[1] = system: SHR hypertensive rats with heart failure; assay: Hemodynamic measurement in hypertensive heart failure rats; assay type: in vivo, rat; settings: captopril 10 mg/kg intragastric 2 times a day; for MAP / −dp/dt: hypertensive heart failure rats, after 3 treatment cycles, rhNRG 6.5 ug/kg i.v. once a day 5 days on/2 days off
Description: (§1) The study is on the therapeutic effect of recombinant human neuregulin (rhNRG) in SHR hypertensive rats with heart failure. Methods: SHR hypertensive rat strains, normal feeding, monitoring changes of cardiac function during feeding. […] Hypertensive heart failure rats were randomly divided into negative control group, NRG treatment group and captopril treatment group. rhNRG was administered continuously for 5 days, withdrawing for 2 days in a treatment cycle, NRG group received 3 treatment cycles. At the end of the second and third treatment cycle, each group of rats was examined by echocardiography to determine the cardiac function changes. After the third treatment cycle, hemodynamics of the rats were detected.
(§2) The SHR hypertensive rat strains, normal feeding, and monitoring the cardiac function changes during the feeding.
After the model was successfully established, the rats were randomly divided into negative control group, NRG treatment group and captopril treatment group. RhNRG was administered intravenously, with a dose of 6.5 ug/kg, once a day, 5 days of continuous administration and 2 days of drug withdraw period as a treatment cycle. A total of 3 treatment cycles were administered. At the same time, the NRG group was given drinking water by intragastric administration two times a day. Captopril was administrated 10 mg/kg by intragastric administration, 2 times a day, continuous administration. NRG excipient was administrated by tail vein injection for 3 treatment cycles. The negative control group were given drinking water by intragastric administration and given NRG excipients by tail vein injection.
At the end of the third treatment cycle, the rats were anesthetized with 3% pentobarbital by intraperitoneal injection. Median incision was made in the neck, the left common carotid artery was isolated and intubated, and the arterial and left ventricular hemodynamic parameters were measured.

[2] = system: patients with heart failure with preserved ejection fraction; assay: Mitral valve flow spectrum of two-dimensional echocardiography, preliminary clinical trial; assay type: in vivo, human
Description: To evaluate the effect of recombinant human neuregulin on cardiac function of patients with heart failure with preserved ejection fraction, the preliminary clinical trial was carried out in the Sixth People's Hospital Affiliated to Shanghai Jiao Tong University, which comprises 2 patients in the placebo group and 2 patients in the experiment group.
1.1 left ventricular ejection fraction (LVEF) ≥50% (two-dimensional echocardiography diagnosis);
1.2 New York heart function (NYHA) II or III level;
4. Data collection: Mitral valve flow spectrum of two-dimensional echocardiography was detected during the screening period, 11-13 d and 30 d.

[3] = system: SHR hypertensive rats with heart failure; assay: Echocardiography examination in hypertensive heart failure rats; assay type: in vivo, rat; settings: rhNRG 6.5 ug/kg, after 2 cycles or 3 cycles of treatment
Description: as §1, §2
After the model was successfully established, the rats were randomly divided into negative control group, NRG treatment group and captopril treatment group. RhNRG was administered intravenously, with a dose of 6.5 ug/kg, once a day, 5 days of continuous administration and 2 days of drug withdraw period as a treatment cycle. A total of 3 treatment cycles were administered. At the same time, the NRG group was given drinking water by intragastric administration two times a day. […]

[4] = patient 8003, 0.3 ug/kg/day i.v. drip 10 hours a day for 10 days, 11-13 d
[5] = patient 8003, 0.3 ug/kg/day i.v. drip 10 hours a day for 10 days, 30 d
[6] = patient 8003, 0.3 ug/kg/day i.v. drip 10 hours a day for 10 days, screening period (before treatment)
[7] = patient 8004, 0.3 ug/kg/day i.v. drip 10 hours a day for 10 days, 11-13 d
[8] = patient 8004, 0.3 ug/kg/day i.v. drip 10 hours a day for 10 days, 30 d
[9] = patient 8004, 0.3 ug/kg/day i.v. drip 10 hours a day for 10 days, screening period (before treatment)

Molecule	MAP [1]	−dp/dt [1]	blood pressure ([1]; hypertensive rats, vs 216.5±23.2 and 228.0±26.0 in the other groups (p=0.029, p=0.017))	DT [2, 4] [ms]	IVRT [2, 4] [ms]	DT [2, 5] [ms]	IVRT [2, 5] [ms]	DT [2, 6] [ms]	IVRT [2, 6] [ms]	DT [2, 7] [ms]	IVRT [2, 7] [ms]	DT [2, 8] [ms]	IVRT [2, 8] [ms]	DT [2, 9] [ms]	IVRT [2, 9] [ms]	IVRT and DT values, change over the trial ([2]; patients administered with NRG 0.3 ug/kg/day, versus placebo patients whose values gradually increased)	left ventricular end diastolic and end systolic volume [3]
C[C@H](CS)C(=O)N1CCC[C@H]1C(=O)O [captopril, reference compound]	139.9 ± 24.8	−5441.2 ± 1007.3	174.5±33.0														
B1	182.5 ± 18.8	−7467.6±715.8		203.7	340.1	179.5	345	229.08	374.31	256.15	609.28	255.14	499.08	262.28	621.07	significantly decreased	prevent further left ventricular end diastolic and end systolic volume enlargement
